Experimental data reported in US8889126B2, “Methods and compositions for treating neuropathies” (Washington University, priority 2004, dated 2014).

What was measured:
DRG explant neurons = test: in vitro Wallerian degeneration assay: DRG explant cultures, axonal transection by removal of neuronal cell bodies; format: cell-based, mouse; settings: lentivirus-infected DRG neurons
Method: (§1) To identify the mechanism of delayed axonal degeneration mediated by the Wld^s protein, we employed an in-vitro Wallerian degeneration model. Primary DRG explant neurons were infected with lentivirus expressing the appropriate proteins, and axons were injured by either removal of the neuronal cell body (transection) or growth in vincristine (toxic).
Mouse DRG explants from E12.5 embryos were cultured in the presence of 1 nM nerve growth factor. Non-neuronal cells were removed from the cultures by adding 5-fluorouracil to the culture medium. Transection of neurites was performed at 10-20 DIV using an 18-gauge needle to remove the neuronal cell bodies. […]
Lentiviral expression vectors were generated using HEK293T cells as described above. […] These lysates were analyzed by immunoblot to using anti-His tag monoclonal antibody (Qiagen) to detect expression of the respective hexahistidine-tagged proteins. […]
Quantitative analysis of axonal degeneration was performed as previously described (Zhai, et al., Neuron 39:217-25, 2003). […] Axons with a fragmented, non-refractile appearance were designated as “degenerated.” At each time point, at least 200 singly distinguishable axons were blindly scored from several randomly taken images of each culture. […]
Cell culture, in vitro axotomy, and quantification of axonal degeneration. […] Quantitative analysis of neurite degeneration was performed.

DRG neurons = test: overall cellular NAD levels in DRG neurons by microscale enzymatic assays; format: cell-based; settings: NMNAT1 expressing vs wild type DRG neurons
Source text: Similarly, most enzymes that make up the NAD salvage pathway in yeast are also compartmentalized in the nucleus. […] Furthermore, levels of tissue NAD in the brains of wild type and wld^s mice are similar despite the increased levels of NMNAT activity in wld^s mice (Mack, et al., Nat Neurosci, 4:1199-206, 2001).

DRG neuronal explant = test: vincristine-induced axonal degeneration in DRG neuronal explants; format: cell-based, mouse; settings: 0.5 μM vincristine for up to 9 d, lentiviral expression
Method: as §1
Quantitative analysis of axonal degeneration was performed as previously described (Zhai, et al., Neuron 39:217-25, 2003). Briefly, the cultures were examined using phase contrast microscopy at the indicated times. Axons with a fragmented, non-refractile appearance were designated as “degenerated.” At each time point, at least 200 singly distinguishable axons were blindly scored from several randomly taken images of each culture. […] For calculations of neurite-covered area, digitally captured images from quadruplicate samples of two independent experiments were analyzed using analysis 3.1 software (Soft Imaging System, Lakewood, Colo.).
In addition to mechanical transection, axonal protection in wld^s mice is also observed against other damaging agents such as ischemia and toxins (Coleman, et al., Trends Neurosci 25:532-37, 2002; Gillingwater, et al., J Cereb Blood Flow Metab 24:62-66, 2004). […] FIG. 2C illustrates protein expression in lentivirus-infected cells detected by immunoblot analysis using antibodies to the 6×His tag. […]

| Molecule | axonal degeneration after transection in neurons expressing the construct (DRG explant neurons) | overall cellular NAD levels (DRG neurons) | axon length and refractility in vincristine (DRG neuronal explant) |
| --- | --- | --- | --- |
| NmPRT: nicotinamide phosphoribosyltransferase, expressed in neurons (protein, UniProt Q99KQ4 1-491, looked up) Nicotinamide …: MNAAAEAEFNILLATDSYKVTHYKQYPPNTSKVYSYFECREKKTENSKVRKVKYEETVFYGLQYILNKYLKGKVVTKEKIQEAKEVYREHFQDDVFNERGWNYILEKYDGHLPIEVKAVPEGSVIPRGNVLFTVENTDPECYWLTNWIETILVQSWYPITVATNSREQKKILAKYLLETSGNLDGLEYKLHDFGYRGVSSQETAGIGASAHLVNFKGTDTVAGIALIKKYYGTKDPVPGYSVPAAEHSTITAWGKDHEKDAFEHIVTQFSSVPVSVVSDSYDIYNACEKIWGEDLRHLIVSRSTEAPLIIRPDSGNPLDTVLKVLDILGKKFPVTENSKGYKLLPPYLRVIQGDGVDINTLQEIVEGMKQKKWSIENVSFGSGGALLQKLTRDLLNCSFKCSYVVTNGLGVNVFKDPVADPNKRSKKGRLSLHRTPAGNFVTLEEGKGDLEEYGHDLLHTVFKNGKVTKSYSFDEVRKNAQLNIEQDVAPH | shows axonal protection |  |  |
| dominant-negative Ufd2a mutant: Ufd2a containing a point mutation (P1140A) that inhibits wild-type Ufd2a function (protein, UniProt Q9ES00 1-1173, looked up, variant P1140A) Ubiquitin conjugation factor …: MEELSADEIRRRRLARLAGGQTSQPTTPLTSPQRENPPGPPIAASAPGPSQSLGLNVHNMTPATSPIGAAGVAHRSQSSEGVSSLSSSPSNSLETQSQSLSRSQSMDIDGVSCEKSMSQVDVDSGIENMEVDENDRREKRSLSDKEPSSGPEVSEEQALQLVCKIFRVSWKDRDRDVIFLSSLSAQFKQNPKEVFSDFKDLIGQILMEVLMMSTQTRDENPFASLTATSQPIATAARSPDRNLMLNTGSSSGTSPMFCNMGSFSTSSLSSLGASGGASNWDSYSDHFTIETCKETDMLNYLIECFDRVGIEEKKAPKMCSQPAVSQLLSNIRSQCISHTALVLQGSLTQPRSLQQPSFLVPYMLCRNLPYGFIQELVRTTHQDEEVFKQIFIPILQGLALAAKECSLESDYFKYPLMALGELCETKFGKTHPMCNLVASLPLWLPKSLSPGSGRELQRLSYLGAFFSFSVFAEDDAKVVEKYFSGPAITLENTRVVSQSLQHYLELGRQELFKILHSILLNGETREAALSYMAALVNANMKKAQMQADDRLVSTDGFMLNLLWVLQQLSTKIKLETVDPTYIFHPRCRITLPNDETRINATMEDVNERLTELYGDQPPFSEPKFPTECFFLTLHAHHLSILPSCRRYIRRLRAIRELNRTVEDLKNNESQWKDSPLATRHREMLKRCKTQLKKLVRCKACADAGLLDESFLRRCLNFYGLLIQLMLRILDPAYPDVTLPLNSEVPKVFAALPEFYVEDVAEFLFFIVQYSPQVLYEPCTQDIVMFLVVMLCNQNYIRNPYLVAKLVEVMFMTNPSVQPRTQKFFEMIENHPLSTKLLVPSLMKFYTDVEHTGATSEFYDKFTIRYHISTIFKSLWQNIAHHGTFMEEFNSGKQFVRYINMLINDTTFLLDESLESLKRIHEVQEEMKNKEQWDQLPRDQQQARQSQLAQDERVSRSYLALATETVDMFHLLTKQVQKPFLRPELGPRLAAMLNFNLQQLCGPKCRDLKVENPEKYGFEPKKLLDQLTDIYLQLDCARFAKAIADDQRSYSKELFEEVISKMRKAGIKSTIAIEKFKLLAEKVEEIVAKNARAEIDYSDAPDEFRDPLMDTLMTDPVRLPSGTVMDRSIILRHLLNSPTDAFNRQMLTESMLEPVPELKEQIQAWMREKQSSDH | neither of these methods resulted in delayed axonal degradation |  |  |
| NMNAT1: nicotinamide mononucleotide adenylyltransferase1, murine, lentivirally expressed (protein, UniProt Q9EPA7 1-285, looked up, lentivirally expressed) Nicotinamide/nicotinic acid …: MDSSKKTEVVLLACGSFNPITNMHLRLFELAKDYMHATGKYSVIKGIISPVGDAYKKKGLIPAHHRIIMAELATKNSHWVEVDTWESLQKEWVETVKVLRYHQEKLATGSCSYPQSSPALEKPGRKRKWADQKQDSSPQKPQEPKPTGVPKVKLLCGADLLESFSVPNLWKMEDITQIVANFGLICITRAGSDAQKFIYESDVLWRHQSNIHLVNEWITNDISSTKIRRALRRGQSIRYLVPDLVQEYIEKHELYNTESEGRNAGVTLAPLQRNAAEAKHNHSTL |  | no changes in overall cellular NAD levels were found | maintained their original length and refractility |
